Laboratory results published in patent US20070224198A1 (GlaxoSmithKline, published 2007).

T1: Plasma VII (UniProt P08709 61-466)
T1 construct: also called Factor VII
T1 sequence (looked up): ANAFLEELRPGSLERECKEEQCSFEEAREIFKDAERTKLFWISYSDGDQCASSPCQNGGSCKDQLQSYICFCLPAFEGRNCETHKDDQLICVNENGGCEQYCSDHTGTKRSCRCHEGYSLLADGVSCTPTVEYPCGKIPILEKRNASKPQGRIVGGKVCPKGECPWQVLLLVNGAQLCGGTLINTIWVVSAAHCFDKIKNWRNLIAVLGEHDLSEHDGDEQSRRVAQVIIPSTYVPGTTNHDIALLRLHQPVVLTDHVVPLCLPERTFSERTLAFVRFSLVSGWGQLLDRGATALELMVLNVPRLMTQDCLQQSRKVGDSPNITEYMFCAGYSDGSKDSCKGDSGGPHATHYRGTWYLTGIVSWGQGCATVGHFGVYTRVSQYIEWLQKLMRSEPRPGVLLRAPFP


Tests used:
[1] = target: T2, Recombinant human Factor IX (rhFIX, Genetics Institute) (human, UniProt P00740 47-461); experiment: biosensor (BIAcore)
Method: (§1) The kinetics of Factor IX binding to SB 249417 was assessed by BIAcore analysis with antibody bound to an immobilized protein A surface. Recombinant human Factor IX (rhFIX, Genetics Institute) at 49 nM was used and measurements performed in the presence of 5 mM Ca²⁺.

[2] = target: T2, Recombinant human Factor IX (rhFIX, …); experiment: titration calorimetry
Method: (§2) The interactions between rhFIX and SB 249417 , BC2 and other humanized constructs were characterized by titration microcalorimetry, which measures binding interactions in solution from the intrinsic heat of binding. Nine injections of 106 uM FIX were made into the calorimeter containing 2 uM mAb SB 249417. Binding was detected in the first 4 injections as exothermic heats. At the last 5 injections the mAb binding sites were saturated with FIX and only background heats of mixing were observed. […] Nonlinear least squares analysis of the data yield the binding affinity.

[3] = target: T2, Recombinant human Factor IX (rhFIX, …); experiment: isothermal titration calorimetry
Method: as §2

[4] = target: T2, Recombinant human Factor IX (rhFIX, …); experiment: isothermal titration calorimetry, 25 C
Method: as §2

[5] = target: T2, Recombinant human Factor IX (rhFIX, …); experiment: SPR (BIAcore), calculated from kinetics
Method: as §1

[6] = target: T2, Recombinant human Factor IX (rhFIX, …); experiment: titration calorimetry, 37 C, 10 mM CaCl2
Method: as §2

[7] = target: T2, Recombinant human Factor IX (rhFIX, …); experiment: titration microcalorimetry, 106 uM FIX injected into 2 uM mAb
Method: as §2

[8] = target: T2, Recombinant human Factor IX (rhFIX, …); experiment: titration calorimetry, calculated for 25 C by the van't Hoff equation, 10 mM CaCl2
Method: as §2

[9] = target: T2, Recombinant human Factor IX (rhFIX, …); experiment: SPR (BIAcore), antibody bound to immobilized protein A, rhFIX in solution, 5 mM Ca2+
Method: as §1

[10] = target: T2, Recombinant human Factor IX (rhFIX, …); experiment: SPR (BIAcore), antibody bound to immobilized protein A, Factor IX in solution
Method: as §1

human Factor IX = human Factor IX (human, UniProt P00740 47-461); experiment: cell-based or functional assay
[11] = target: IX K5A (Factor IX having a lysine to alanine substitution at residue 5) (UniProt P00740 47-461, K5A); experiment: SPR (BiaCore 2000), BC2 coupled to the chip, 200 nM construct, 5 mM CaCl2
Method: (§3) A library of chimeric constructs composed of sequences of Factor IX spliced into the framework of the homologous protein Factor VII was constructed and used to map the epitope for the Factor IX BC2 mAb. See Cheung et al., Thromb. Res. 80, 419-427 (1995). Binding was measured using a BiaCore 2000 surface plasmon resonance device. The BC2 antibody was coupled directly to the chip using the NHS/EDC reaction. Binding was measured by 2 min of contact time at 20 uL/min with 200 nM of each of the given constructs in 25 mM MOPS, pH 7.4, 0.15 M NaCl, 5 mM CaCl2. Dissociation was monitored for 3 min using the same buffer with no protein. No binding was detected to the wild type construct in the presence of 50 mM EDTA.

Plasma VII = target: T1, Plasma VII; experiment: SPR (BiaCore 2000), BC2 coupled to the chip, construct injected, 5 mM CaCl2
Method: as §3

VII-A/IX = target: T3, VII-A/IX (UniProt P08709 61-105; P00740 93-461, limits assumed); experiment: as above
T3 construct: The make-up is read from the label by analogy with IX-A/VII
Method: as §3

T2 sequence (P00740 47-461 limits assumed): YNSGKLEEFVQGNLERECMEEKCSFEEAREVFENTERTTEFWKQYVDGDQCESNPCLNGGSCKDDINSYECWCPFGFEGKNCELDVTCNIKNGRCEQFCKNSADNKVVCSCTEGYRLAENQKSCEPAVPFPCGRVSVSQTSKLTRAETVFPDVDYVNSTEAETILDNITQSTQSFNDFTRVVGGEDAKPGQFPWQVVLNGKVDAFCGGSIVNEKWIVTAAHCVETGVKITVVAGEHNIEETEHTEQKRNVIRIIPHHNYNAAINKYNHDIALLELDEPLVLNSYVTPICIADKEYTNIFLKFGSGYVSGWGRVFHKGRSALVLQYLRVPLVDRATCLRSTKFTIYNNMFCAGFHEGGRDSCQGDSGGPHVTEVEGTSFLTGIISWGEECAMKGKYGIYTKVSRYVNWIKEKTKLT
Sequence of human Factor IX (P00740 47-461 limits assumed): as above
Sequence of IX K5A (Factor IX having a lysine to alanine substitution at residue 5) (P00740 47-461 K51A): as the sequence (P00740 47-461 limits assumed) above, with K5A counted along it

Row | Binder | Molar Binding Ratio FIX/mAb [2] [FIX/mAb] | Kd [5] [nM] | Kd [6] [nM] | Kd [8] [nM] | koff [10] [s⁻¹] | kon [10] [M⁻¹ s⁻¹] | further results
1 | humanized anti-human Factor IX monoclonal antibody SB 249417 (antibody, V domains shown, also called F9HZHC 1-1 / F9HZLC 2-0) VH: QVQLVQSGSELKKPGASVKVSCKASGYTFTNYGMNWVRQAPGQGLKWMGWINTRNGKSTYVDDFKGRFVFSLDSSVSTAYLQISSLKADDTAVYYCTREGNMDGYFPFTYWGQGTLVTVSS VL: QIVLTQSPSSLSASVGDRVTITCRASSSVNYMHWYQQKPGKAPKPWIYATSNLASGVPSRFSGSGSGTDYTFTISSLQPEDIATYYCQQWSINPRTFGQGTKVEIKR | 1.5 | 1.9 | 12 | 4 | – | – | Kd [1]: 2 nM; koff [1]: 0.0004 s⁻¹; kon [1]: 200000 M⁻¹ s⁻¹; Stoichiometry of Factor IX Binding [3]: 1.5 moles Factor IX : 1 mole mAb; Kd [4]: 4 nM; molar binding ratio at the equivalence point [7]: ~2 FIX per mAb; koff [9]: 0.00041 s⁻¹; kon [9]: 200000 M⁻¹ s⁻¹
2 | humanized anti-human Factor IX monoclonal antibody SB 257732 (antibody, human IgG1, V domains shown, Human IgG1 and kappa constant regions from the vectors; also called F9HZHC 3-0 / F9HZLC 3-0) VH: QIQLVQSGSELKKPGASVKVSCKASGYTFTNYGMNWVRQAPGQGLEWMGWINTRNGKSTYVDDFKGRFVFSLDTSVSTAYLQISSLKAEDTAVYFCTREGNMDGYFPFTYWGQGTLVTVSS VL: QIVLTQSPSSLSASVGDRVTITCRASSSVNYMHWYQQKPGKAPKPWIYATSNLASGVPSRFSGSGSGTDYTLTISSLQPEDFATYYCQQWSINPRTFGGGTKLEIKR | 1.8 | 1.5 | 9 | 4 | 0.0012 | 1.1e+06 | –
3 | humanized anti-human Factor IX monoclonal antibody SB 249415 (antibody, human IgG1, V domains shown, Human IgG1 and kappa constant regions from the vectors; also called F9HZHC 1-1 / F9HZLC 1-1) VH: QVQLVQSGSELKKPGASVKVSCKASGYTFTNYGMNWVRQAPGQGLKWMGWINTRNGKSTYVDDFKGRFVFSLDSSVSTAYLQISSLKADDTAVYYCTREGNMDGYFPFTYWGQGTLVTVSS VL: EIVLTQSPATLSLSPGERATLSCRASSSVNYMHWYQQRPGQAPKPWIYATSNLASGVPARFSGSGSGTDFTLTISSLEPEDFAVYYCQQWSINPRTFGGGTKVEIKR | 1.7 | 1.1 to 2.3 | 7 | 3 | 0.00018 | 750000 | –
4 | humanized anti-human Factor IX monoclonal antibody SB 257731 (antibody, human IgG1, V domains shown, Human IgG1 and kappa constant regions from the vectors; also called F9HZHC 1-1 / F9HZLC 1-3) VH: QVQLVQSGSELKKPGASVKVSCKASGYTFTNYGMNWVRQAPGQGLKWMGWINTRNGKSTYVDDFKGRFVFSLDSSVSTAYLQISSLKADDTAVYYCTREGNMDGYFPFTYWGQGTLVTVSS VL: QIVLTQSPATLSLSPGERATLSCRASSSVNYMHWYQQRPGQAPKPWIYATSNLASGVPARFSGSGSGTDYTLTISSLEPEDFAVYYCQQWSINPRTFGGGTKVEIK | – | 1.1 | – | – | 0.00099 | 920000 | –
5 | humanized anti-human Factor IX monoclonal antibody SB 249413 (antibody, human IgG1, V domains shown, also called F9HZHC 1-0 / F9HZLC 1-0) VH: QVQLVQSGSELKKPGASVKVSCKASGYTFTNYGMNWVRQAPGQGLEWMGWINTRNGKSTYVDDFKGRFVFSLDTSVSTAYLQISSLKADDTAVYYCAREGNMDGYFPFTYWGQGTLVTVSS VL: EIVLTQSPATLSLSPGERATLSCRASSSVNYMHWYQQRPGQAPRLLIYATSNLASGIPARFSGSGSGTDFTLTISSLEPEDFAVYYCQQWSINPRTFGGGTKVEIKR | 1.9 | 3.7 to 5.1 | 12 | 6 | 0.0028 | 650000 | –
6 | humanized anti-human Factor IX monoclonal antibody SB 249416 (antibody, human IgG1, V domains shown, Human IgG1 and kappa constant regions from the vectors; also called F9HZHC 1-1 / F9HZLC 1-2) VH: QVQLVQSGSELKKPGASVKVSCKASGYTFTNYGMNWVRQAPGQGLKWMGWINTRNGKSTYVDDFKGRFVFSLDSSVSTAYLQISSLKADDTAVYYCTREGNMDGYFPFTYWGQGTLVTVSS VL: EIVLTQSPATLSLSPGERATLSCRASSSVNYMHWYQQRPGQAPKPWIYATSNLASGVPARFSGSGSGTDYTLTISSLEPEDFAVYYCQQWSINPRTFGGGTKVEIKR | – | 0.8 | – | – | 0.00041 | 520000 | –
7 | murine anti-Factor IX monoclonal antibody BC2 (antibody, mouse IgG2a, V domains shown, also called BC2 mAb; BC2 Antibody) VH: QIQLVQSGPELKKPGETVKISCKASGYTFTNYGMNWVKQAPGKGLKWMGWINTRNGKSTYVDDFKGRFAFSLESSASTANLQIDNLKDEDTATYFCTREGNMDGYFPFTYWGQGTLVTVSA VL: QIVLSQSPAILSASPGEKVTMTCRASSSVNYMHWYQQKPGSSPKPWIYATSNLASGVPARFSGSGSGTSYSLTISRVEAEDAATYYCQQWSINPRTFGGGTKLEIKR | 1.4 | 1.9 | 20 | 10 | 0.00091 | 480000 | IC50, nM (aPTT clotting time of human plasma) (human Factor IX): ~50 nM; binding result [11]: binds; binding result (Plasma VII): no binding (tested: 200 nM); binding result (VII-A/IX): no binding (tested: 200 nM)
8 | mouse-human chimeric anti-Factor IX monoclonal antibody chαFIX (antibody, V domains shown, BC2 variable regions with human constant regions; also called Chf9; F9CHHC / F9CHLC) VH: QIQLVQSGPELKKPGETVKISCKASGYTFTNYGMNWVKQAPGKGLKWMGWINTRNGKSTYVDDFKGRFAFSLESSASTANLQIDNLKDEDTATYFCTREGNMDGYFPFTYWGQGTLVTVSA VL: QIVLSQSPAILSASPGEKVTMTCRASSSVNYMHWYQQKPGSSPKPWIYATSNLASGVPARFSGSGSGTSYSLTISRVEAEDAATYYCQQWSINPRTFGGGTKLEIK | – | 1.3 | – | – | 0.0003 | 240000 | –
